# Source: US20180346573A1 (I MAB, published 2018)
# Positions count from the first letter of the chain named.
# B1: H1210 chimera (antibody, V domains shown)
# VH: EVKLVESGGDLVKPGGSLKLSCAASGFTFSSYDMSWVRQTPEKSLEWVATISDGGGYIYYSDSVKGRFTISRDNAKNNLYLQMSSLRSEDTALYICAREFGKRYALDYWGQGTSVTVSS
# VL: DIVMTQSHKFMSTSVGDRVSISCKASQDVTPAVAWYQQKPGQSPKLLIYSTSSRYTGVPDRFTGSGSGTDFTFTISSVQAEDLAVYYCQQHYTTPLTFGAGTKLELK
# notes: also called chimeric antibody
# B2: Hu1210-22 (antibody, V domains shown)
# VH: EVQLVESGGGLVQPGGSLRLSCAASGFTFSSYDMSWVRQAPGKSLEWVATISDGGGYIYYSDSVKGRFTISRDNAKNSLYLQMNSLRDEDTAVYICAREFGKRYALDYWGQGTTVTVSS
# VL: DIQMTQSPSSLSASVGDRVTITCKASQDVTPAVAWYQQKPGKSPKLLIYSTSSRYTGVPSRFSGSGSGTDFTFTISSLQPEDIATYYCQQHYTTPLTFGQGTKLEIK
# B3: Hu1210-19 (antibody, V domains shown)
# VH: B2 VH with V5L, A75S, S78T, D88A
# VL: B2 VL
# B4: Hu1210-14 (antibody, V domains shown)
# VH: B2 VH with V5L, A75S, S78T, D88A
# VL: B2 VL with S43A
# B5: Hu1210-3 (antibody, V domains shown)
# VH: B2 VH with Q13K, D88A
# VL: B2 VL with S43A
# notes: Not the mouse mAb HL1210-3
# B6: Hu1210-16 (antibody, V domains shown)
# VH: B2 VH with S44G, I95Y
# VL: B2 VL with S43A
# B7: Hu1210-8 (antibody, V domains shown)
# VH: B2 VH with Q13K, S44G, D88A, I95Y
# VL: B2 VL
# B8: Hu1210-31 (antibody, V domains shown)
# VH: B2 VH with S44G, D88A
# VL: DIQMTQSPSSLSASVGDRVTITCKASQDVTPAVAWYQQKPGKAPKLLIYSTSSRYTGVPSRFSGSGSGTDFTLTISSLQPEDFATYYCQQHYTTPLTFGQGTKLEIKR
# B9: Hu1210-17 (antibody, V domains shown)
# VH: B2 VH
# VL: B2 VL with S43A
# B10: Hu1210-27 (antibody, V domains shown)
# VH: B2 VH with S44G, D88A, T114L
# VL: B8 VL
# B11: Hu1210-36 (antibody, V domains shown)
# VH: B2 VH with A40T, G42E, S78N, D88A, T114L
# VL: B8 VL
# Target: human PD-L1 expressed on CHOK1 cells (PDL1-CHOK1 cell line) (human) (UniProt Q9NZQ7)
# Sequence (Q9NZQ7 19-290): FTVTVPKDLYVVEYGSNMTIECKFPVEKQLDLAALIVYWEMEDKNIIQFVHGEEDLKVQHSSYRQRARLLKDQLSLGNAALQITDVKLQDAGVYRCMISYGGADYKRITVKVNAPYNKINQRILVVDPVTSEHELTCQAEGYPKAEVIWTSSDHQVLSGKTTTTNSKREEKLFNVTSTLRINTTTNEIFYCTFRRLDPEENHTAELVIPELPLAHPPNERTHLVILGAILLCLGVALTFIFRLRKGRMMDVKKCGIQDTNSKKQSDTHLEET
# Assay: FACS on PDL1-CHOK1 cells, MFI of Alexa 488 anti-human IgG; EC50 table under the graph, unit from the x axis Antibodies(nM); fit value of a flat control curve, see non_binding
row,EC50 [µM],Molecule
1,9.55,Hu IgG (antibody)

# Target: T1, human PD-L1 expressed on CHOK1 cells (PDL1-CHOK1 cell line) (human, UniProt Q9NZQ7 19-290)
# T1 construct: whole, on cells; also called PDL1-CHOK1 cells; PD-L1 expressed on mammalian cells
# T1 sequence (Q9NZQ7 19-290): as above
# Assay: FACS receptor blocking: PDL1-CHOK1 cells, competitor Bio-PD1 (30 µg/ml)
# Protocol: To evaluate the blocking effect of humanized antibodies on human PD-L1 expressed on mammalian cells to bind to its receptor PD-1, the FACS-based receptor blocking assay was employed. Briefly, PDL1-CHOK1 cells were firstly incubated with 3-fold serious diluted HL1210-3 mouse mAb starting at 20 μg/ml at RT for 1 hour. After wash by FACS buffer (PBS with 2% FBS), the biotin-labeled huPD-1 were added to each well and incubated at RT for 1 hour. Then, the Streptavidin-PE were added to each well for 0.5 hour post twice wash with FACS buffer. The mean florescence intensity (MFI) of PE were evaluated by FACSAriaIII.
row,TOP [%],Molecule
1,87.2,B1
2,85.8,B2
3,87.5,B3
4,79.6,B4
5,84.3,B5
6,88,B6
7,86.3,B7
8,92.9,B8
9,80.9,B9
10,104,B10
11,91.8,B11
